Where two headings read alike, the source gives them in different places. Values belong to the binder of their own block, whether it stands above or below them.
Experiments:
Details in all cases: modification not given
[1] = target: LgTrip 3546 (with His tag; SEQ ID NO: 51); assay: luminescence complementation; SmTrip9 Kd
[2] = target: LgTrip 3546 (with His tag; SEQ ID NO: 51); assay: luminescence complementation; SmTrip9 Kd; remark: listed apart in the source
[3] = target: LgTrip 3546 (with His tag; SEQ ID NO: 51)
[4] = target: LgTrip 3546 (with His tag; SEQ ID NO: 51); assay: luminescence complementation
[5] = target: LgTrip 3546 (with His tag; SEQ ID NO: 51); assay: luminescence complementation; remark: listed apart in the source
[6] = target: LgTrip 3546 (with His tag; SEQ ID NO: 51); assay: luminescence complementation; remark: listed apart in the source
[7] = target: LgTrip 3546 (with His tag; SEQ ID NO: 51); remark: listed apart in the source
[8] = target: LgTrip 3546 (with His tag; SEQ ID NO: 51); assay: luminescence complementation; SmTrip9 Kd; remark: listed apart in the source
[9] = target: LgTrip 3546 (with His tag; SEQ ID NO: 51); assay: luminescence complementation; SmTrip9 Kd; remark: listed apart in the source
[10] = target: LgTrip 3546 (with His tag; SEQ ID NO: 51); assay: luminescence complementation; remark: listed apart in the source
[11] = target: LgTrip 3546 (with His tag; SEQ ID NO: 51); assay: luminescence complementation; SmTrip9 Kd; remark: listed apart in the source
[12] = target: LgTrip 3546 (with His tag; SEQ ID NO: 51); assay: luminescence complementation; SmTrip9 Kd; remark: listed apart in the source
[13] = target: LgTrip 3546 (with His tag; SEQ ID NO: 51); assay: luminescence complementation; remark: listed apart in the source

Sequence of LgTrip 3546 (with His tag; SEQ ID NO: 51) (chain, as listed by the source): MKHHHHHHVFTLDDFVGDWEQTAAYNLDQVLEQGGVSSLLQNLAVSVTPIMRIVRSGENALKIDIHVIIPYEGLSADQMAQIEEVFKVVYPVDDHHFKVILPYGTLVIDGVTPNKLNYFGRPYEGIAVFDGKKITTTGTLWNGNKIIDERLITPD

B2: 428 (peptide)
chain: SSKRGSMLFRVTIWSV
- Kd [3]: 40 nM

B3: 671 (peptide)
chain: GKMLFRVTIQKWK
- Kd [4]: 20 nM
- Kd [5]: 60 nM

B4: 620 (peptide)
chain: GKMLFRVTINSYK
- Kd [6]: 120 nM
- Kd [5]: 190 nM

B5: 302 (peptide)
chain: SSWKRMLFRVTINSVS
- Kd [7]: 520 nM

B7: 745 (peptide)
chain: DKMLFTVTIQKWK
- Kd [9]: 300 nM
- Kd [2]: 200 nM
- Kd [5]: 160 nM

B8: 622 (peptide)
chain: GKMLFRVTIESWK
- Kd [10]: 2880 nM
- Kd [5]: 7240 nM

B11: 668 (peptide)
chain: GKMLFRVTIGKWK
- Kd [13]: 60 nM
- Kd [5]: 130 nM

The remaining lines, values ahead:

- Kd [1]: 360 nM
- Kd [2]: 190 nM
B1: 757 (peptide)
chain: DKLLFTVTIQKYK

- Kd [8]: 480 nM
- Kd [2]: 950 nM
B6: 756 (peptide)
chain: DKLLFTVTIQKWK

- Kd [11]: 330 nM
- Kd [2]: 560 nM
B9: 759 (peptide)
chain: DKLLFTVTIEKYK

- Kd [12]: 520 nM
- Kd [2]: 190 nM
B10: 758 (peptide)
chain: DKLLFTVTIEKWK

From patent publication US20200270586A1
